From paper PMC8839947, “Highly Sensitive RNA-Based Electrochemical Aptasensor for the Determination of C-Reactive Protein Using Carbon Nanofiber-Chitosan Modified Screen-Printed Electrode”

Molecular target: T1, C-reactive protein (CRP) (UniProt P02741 19-224)
T1 sequence: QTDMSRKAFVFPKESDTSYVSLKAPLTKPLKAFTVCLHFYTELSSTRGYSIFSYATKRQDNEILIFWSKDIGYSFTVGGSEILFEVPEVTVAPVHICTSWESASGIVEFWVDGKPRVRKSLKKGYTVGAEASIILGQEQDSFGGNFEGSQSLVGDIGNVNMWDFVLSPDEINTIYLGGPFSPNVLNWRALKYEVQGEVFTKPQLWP
Assay: square-wave voltammetry (Langmuir isotherm, MB signal-off electrode); 2 mM CaCl2; 60 min incubation; KL 1.07 pM-1; CRP incubation in 0.1 M Tris pH 7.4, 2 mM CaCl2, 60 min; SWV read-out in PBS (0.1 M, pH 7.4); BSA-blocked electrode; incubation temperature not stated (298 K used in calculations)
Settings: protein: commercial; chain copies: 5; label: methylene blue self-assembled (non-covalent); immobilized via glutaraldehyde on CNFs-chitosan carbon screen-printed electrode

GCCUGUAAGGUGGUCGGUGUGGCGAGUGUGUUAGGAGAGAUUGC (structured_RNA, 5'-NH2-(CH2)6) [CRP RNA aptamer (5'-amino)] was tested, and the Kd was 0.93 pM.
